# From article PMC8071527, “Substrate Specificity of Chimeric Enzymes Formed by Interchange of the Catalytic and Specificity Domains of the 5′-Nucleotidase UshA and the 3′-Nucleotidase CpdB” (Molecules, 2021)
# Assays:
# Test in all cases: phosphate release, colorimetric, saturation kinetics
# Type in all cases: biochemical, Escherichia coli
# Details in all cases: Mn2+; alkaline phosphatase as auxiliary enzyme
# [1] = test system: C[N+](C)(C)CCOP(=O)(O)OP(=O)([O-])OC[C@H]1O[C@@H](n2ccc(N)nc2=O)[C@H](O)[C@@H]1O
# Source text: (§1) phosphate release, colorimetric, saturation kinetics on CpdB_Ndom–UshA_Cdom
# [2] = test system: Nc1ncnc2c1ncn2[C@@H]1O[C@H](CO)[C@H]2OP(=O)(O)O[C@H]21
# Source text: as §1
# [3] = test system: O=[N+]([O-])c1ccc(OP(=O)(O)Oc2ccc([N+](=O)[O-])cc2)cc1
# Source text: as §1
# [4] = test system: O=c1ccn([C@@H]2O[C@H](CO[P@@](=O)(O)O[P@@](=O)(O)O[C@H]3O[C@H](CO)[C@@H](O)[C@H](O)[C@H]3O)[C@@H](O)[C@H]2O)c(=O)[nH]1
# Source text: as §1
# [5] = test system: C[N+](C)(C)CCOP(=O)(O)OP(=O)([O-])OC[C@H]1O[C@@H](n2ccc(N)nc2=O)[C@H](O)[C@@H]1O; remark: listed apart in the source
# Source text: (§2) phosphate release, colorimetric, saturation kinetics on UshA_Ndom–CpdB_Cdom
# [6] = test system: Nc1ncnc2c1ncn2[C@@H]1O[C@H](CO)[C@H]2OP(=O)(O)O[C@H]21; remark: listed apart in the source
# Source text: as §2
# [7] = test system: O=[N+]([O-])c1ccc(OP(=O)(O)Oc2ccc([N+](=O)[O-])cc2)cc1; remark: listed apart in the source
# Source text: as §2
# [8] = test system: O=c1ccn([C@@H]2O[C@H](CO[P@@](=O)(O)O[P@@](=O)(O)O[C@H]3O[C@H](CO)[C@@H](O)[C@H](O)[C@H]3O)[C@@H](O)[C@H]2O)c(=O)[nH]1; remark: listed apart in the source
# Source text: as §2
substance,measurement,setting,value
CpdB_Ndom–UshA_Cdom (Escherichia coli),Km,[1],3900 ± 600 µM
same,kcat,[1],11 ± 3 s⁻¹
same,kcat/Km,[1],2700 ± 300 M⁻¹ s⁻¹
same,Km,[2],370 ± 40 µM
same,kcat,[2],117 ± 24 s⁻¹
same,kcat/Km,[2],320000 ± 80000 M⁻¹ s⁻¹
same,Km,[3],1400 ± 60 µM
same,kcat,[3],208 ± 77 s⁻¹
same,kcat/Km,[3],150000 ± 55000 M⁻¹ s⁻¹
same,Km,[4],5900 ± 1900 µM
same,kcat,[4],0.2 ± 0.1 s⁻¹
same,kcat/Km,[4],40 ± 8 M⁻¹ s⁻¹
UshA_Ndom–CpdB_Cdom (Escherichia coli),Km,[5],1400 ± 400 µM
same,kcat,[5],0.3 ± 0.01 s⁻¹
same,kcat/Km,[5],210 ± 60 M⁻¹ s⁻¹
same,Km,[6],1100 ± 350 µM
same,kcat,[6],3.6 ± 1 s⁻¹
same,kcat/Km,[6],3400 ± 1300 M⁻¹ s⁻¹
same,Km,[7],670 ± 120 µM
same,kcat,[7],45 ± 3 s⁻¹
same,kcat/Km,[7],68000 ± 13000 M⁻¹ s⁻¹
same,Km,[8],5000 ± 1700 µM
same,kcat,[8],0.1 ± 0.01 s⁻¹
same,kcat/Km,[8],20 ± 10 M⁻¹ s⁻¹
